The experiment has as its target HIS-SFTSV-NP抗原 (recombinant SFTSV NP antigen expressed in E. coli BL21(DE3) from pET-30a) (新布尼亚病毒 (SFTSV)). The experiment can be described thus: indirect ELISA, NP antigen coated.

B1: 单克隆抗体anti-SFTSV-NP-mab1 (antibody, V domains shown)
VH: EVQLEESGGGLVQPGGSRKLSCAVSGFTFSNFGIHWVRQAPEKGLEWVAYISSGGTTIYYADTVKGRFTISRDNPMNTLFLQMTSLRSEDTAMYHCARSDYFGMMDYWGQGTSVTVSS
VL: DIVITQTPSSLSASLGDRVTISCRASQDIRNYLNWYQQKPDGTVKLLVYYTSRLHSGVPSRFSGSGSGTDFSLTISNLEQEDIATYFCQQAHTLLTFGAGTKLEIK
As for B1, the 工作浓度 worked out at 15.6 ng/mL and the 检测限 (of NP protein) was found to be 1.95 ng/mL.

Source of the values: CN117736316A.
